According to patent publication US20210228731A1, “ANTIBODY DRUG CONJUGATES FOR ABLATING HEMATOPOIETIC STEM CELLS” (NOVARTIS AG, priority 2018, published 2021):

Test system: human peripheral blood HSC-derived mast cells
Assay: In vitro human mast cell degranulation assay (beta-hexosaminidase release)
Type: cell-based
Details: test agents 0.006-25 nM cross-linked with antibody specific for the Fab portion; absence of SCF
Description: Mature mast cells were generated using CD34+ progenitors from mobilized peripheral blood. CD34+ cells were cultured in StemSpan SFEM (StemCell Technologies) supplemented with recombinant human stem cell factor (rhSCF, 50 ng/ml, Gibco), recombinant human interleukin 6 (rhIL-6, 50 ng/ml, Gibco), recombinant human IL-3 (30 ng/ml, Peprotech), GlutaMAX ([…], Gibco), penicillin (100 U/ml, Hyclone) and streptomycin (100 μg/ml, Hyclone). Recombinant hll-3 was added only during the first week of the culture. After the third week, half of the medium was replaced weekly with fresh medium containing rhIL-6 (50 ng/ml) and rhSCF (50 ng/ml). Mature mast cell purity was evaluated by surface staining of high-affinity IgE receptor (FCεRI, eBioscience) and CD117 (BD). […]
The derived mast cells were washed once to remove SCF, and the required amount of cells was incubated overnight in mast cell medium containing rhIL-6 (50 ng/ml) with or without rhSCF (50 ng/ml). […] During this incubation, p-nitro-N-acetyl-pi-D-gluosamine (pNAG, Sigma) buffer was prepared by sonicating 3.5 mg/ml of pNAG in citrate buffer (40 mM citric acid, 20 mM sodium phosphate dibasic, pH 4.5). β-hexosaminidase release was measured by mixing 20 μl of cell supernatant with 40 μl of pNAG solution in a flat-bottom 384-well plate. […] Absorbance was read using a plate reader at λ=405 nm with reference filter at λ=620 nm. […]

B1: anti-cKIT Fab4 (HC-E152C): anti-cKIT Fab fragment with heavy chain E152C (Cys Fab HC SEQ ID NO: 136) (antibody)
heavy: QVQLQQSGPGLVKPSQTLSLTCAISGDSVSTNSAAWNWIRQSPSRGLEWLGRIYYRSQWLNDYAVSVKSRITINPDTSKNQFSLQLNSVTPEDTAVYYCARQLTYPYTVYHKALDVWGQGTLVTVSSASTKGPSVFPLAPSSKSTSGGTAALGCLVKDYFPCPVTVSWNSGALTSGVHTFPAVLQSSGLYSLSSVVTVPSSSLGTQTYICNVNHKPSNTKVDKRVEPKSCD
modifications: light chain not cited
  mast cell degranulation (beta-hexosaminidase release) when cross-linked: no mast cell degranulation was triggered
